Data on 1 protein can be found in paper doi:10.1101/2022.08.24.505111 (bioRxiv, 2022).

The data set concerns the molecule itself. Kind of data set: crystal structure.

B1: Chloramphenicol acetyltransferase III (CATIII+GG construct) (enzyme)
chain: SGGNYTKFDVKNWVRREHFEFYRHRLPCGFSLTSKIDITTLKKSLDDSAYKFYPVMIYLIAQAVNQFDELRMAIKDDELIVWDSVDPQFTVFHQETETFSALSCPYSSDIDQFMVNYLSVMERYKSDTKLFPQGVTPENHLNISALPWVNFDSFNLNVANFTDYFAPIITMAKYQQEGDRLLLPLSVQVHHAVCDGFHVARFINRLQELCNSKLK
By stoichiometry N is commonly meant the number of molecules, sites or subunits per partner or assembly. With B1, the “stoichiometry N” value came to 3.
